In publication PMC12173559:
pKd: −log10 of the molar value.

Molecular target: MERS-CoV receptor binding domain (RBD), biotinylated (MERS-CoV) (UniProt K9N5Q8)
Assay: BLI; […] (10 µg/mL) […] (SA) biosensor for 300 s; analyte in kinetic buffer (PBST, 0.1% BSA) […], association 120 s, dissociation 180 s; […]

Substance | pKd
alpaca DPP4 (receptor) | 7.23
rhesus monkey DPP4 (receptor) | 7.32
